The target of this data set is RNAP-SigA holoenzyme (Mycobacterium tuberculosis, UniProt P9WGZ1;P9WGY9;P9WGY7;P9WGI1 1-347;1-1178;1-1316;1-528). The data set can be described thus: EMSA. As to conditions: protein: recombinant; chain copies: 2;1;1;1; blunt.

The record followed here is PMC12170906.

Chain of RNAP-SigA holoenzyme (P9WGZ1 whole entry, chain 1 of 4): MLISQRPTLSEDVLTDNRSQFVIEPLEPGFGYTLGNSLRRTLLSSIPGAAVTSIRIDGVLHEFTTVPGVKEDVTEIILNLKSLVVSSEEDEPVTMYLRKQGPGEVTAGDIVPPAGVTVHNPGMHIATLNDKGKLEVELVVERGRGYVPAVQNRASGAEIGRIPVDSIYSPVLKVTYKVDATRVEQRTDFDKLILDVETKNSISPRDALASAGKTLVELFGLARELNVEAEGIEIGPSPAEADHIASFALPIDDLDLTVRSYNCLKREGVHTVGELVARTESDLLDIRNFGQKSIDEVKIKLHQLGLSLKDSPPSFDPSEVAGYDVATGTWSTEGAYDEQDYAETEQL
Chain of RNAP-SigA holoenzyme (P9WGY9 whole entry, chain 2 of 4): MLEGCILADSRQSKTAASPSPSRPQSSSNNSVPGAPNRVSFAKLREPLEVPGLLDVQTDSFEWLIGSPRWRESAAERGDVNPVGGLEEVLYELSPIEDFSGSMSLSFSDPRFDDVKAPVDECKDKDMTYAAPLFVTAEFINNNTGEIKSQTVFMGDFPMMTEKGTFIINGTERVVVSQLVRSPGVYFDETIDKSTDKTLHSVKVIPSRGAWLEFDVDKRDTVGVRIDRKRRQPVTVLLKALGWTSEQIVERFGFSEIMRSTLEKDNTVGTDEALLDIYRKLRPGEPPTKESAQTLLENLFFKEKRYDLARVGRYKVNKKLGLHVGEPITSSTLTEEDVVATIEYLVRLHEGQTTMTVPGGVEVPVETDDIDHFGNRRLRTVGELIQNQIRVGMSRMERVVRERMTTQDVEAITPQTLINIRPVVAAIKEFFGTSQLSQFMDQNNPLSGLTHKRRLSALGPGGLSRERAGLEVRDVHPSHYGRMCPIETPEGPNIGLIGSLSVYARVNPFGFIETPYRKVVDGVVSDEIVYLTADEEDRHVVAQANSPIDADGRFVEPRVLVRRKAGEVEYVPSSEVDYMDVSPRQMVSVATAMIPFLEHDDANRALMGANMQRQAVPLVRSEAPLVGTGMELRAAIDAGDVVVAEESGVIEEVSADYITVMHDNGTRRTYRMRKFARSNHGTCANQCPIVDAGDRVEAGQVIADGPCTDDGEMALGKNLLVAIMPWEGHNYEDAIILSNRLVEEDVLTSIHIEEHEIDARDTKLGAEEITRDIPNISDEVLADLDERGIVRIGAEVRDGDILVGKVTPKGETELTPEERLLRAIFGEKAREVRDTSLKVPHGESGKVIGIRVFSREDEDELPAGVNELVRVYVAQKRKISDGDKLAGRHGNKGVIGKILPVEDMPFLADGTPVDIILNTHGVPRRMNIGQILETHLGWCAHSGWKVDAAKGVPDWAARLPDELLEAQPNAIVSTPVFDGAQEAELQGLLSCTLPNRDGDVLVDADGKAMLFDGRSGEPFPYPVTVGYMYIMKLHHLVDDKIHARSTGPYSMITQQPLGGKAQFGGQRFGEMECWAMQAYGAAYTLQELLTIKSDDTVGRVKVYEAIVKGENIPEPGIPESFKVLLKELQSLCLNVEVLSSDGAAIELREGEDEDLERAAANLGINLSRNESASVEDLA
Chain of RNAP-SigA holoenzyme (P9WGY7 whole entry, chain 3 of 4): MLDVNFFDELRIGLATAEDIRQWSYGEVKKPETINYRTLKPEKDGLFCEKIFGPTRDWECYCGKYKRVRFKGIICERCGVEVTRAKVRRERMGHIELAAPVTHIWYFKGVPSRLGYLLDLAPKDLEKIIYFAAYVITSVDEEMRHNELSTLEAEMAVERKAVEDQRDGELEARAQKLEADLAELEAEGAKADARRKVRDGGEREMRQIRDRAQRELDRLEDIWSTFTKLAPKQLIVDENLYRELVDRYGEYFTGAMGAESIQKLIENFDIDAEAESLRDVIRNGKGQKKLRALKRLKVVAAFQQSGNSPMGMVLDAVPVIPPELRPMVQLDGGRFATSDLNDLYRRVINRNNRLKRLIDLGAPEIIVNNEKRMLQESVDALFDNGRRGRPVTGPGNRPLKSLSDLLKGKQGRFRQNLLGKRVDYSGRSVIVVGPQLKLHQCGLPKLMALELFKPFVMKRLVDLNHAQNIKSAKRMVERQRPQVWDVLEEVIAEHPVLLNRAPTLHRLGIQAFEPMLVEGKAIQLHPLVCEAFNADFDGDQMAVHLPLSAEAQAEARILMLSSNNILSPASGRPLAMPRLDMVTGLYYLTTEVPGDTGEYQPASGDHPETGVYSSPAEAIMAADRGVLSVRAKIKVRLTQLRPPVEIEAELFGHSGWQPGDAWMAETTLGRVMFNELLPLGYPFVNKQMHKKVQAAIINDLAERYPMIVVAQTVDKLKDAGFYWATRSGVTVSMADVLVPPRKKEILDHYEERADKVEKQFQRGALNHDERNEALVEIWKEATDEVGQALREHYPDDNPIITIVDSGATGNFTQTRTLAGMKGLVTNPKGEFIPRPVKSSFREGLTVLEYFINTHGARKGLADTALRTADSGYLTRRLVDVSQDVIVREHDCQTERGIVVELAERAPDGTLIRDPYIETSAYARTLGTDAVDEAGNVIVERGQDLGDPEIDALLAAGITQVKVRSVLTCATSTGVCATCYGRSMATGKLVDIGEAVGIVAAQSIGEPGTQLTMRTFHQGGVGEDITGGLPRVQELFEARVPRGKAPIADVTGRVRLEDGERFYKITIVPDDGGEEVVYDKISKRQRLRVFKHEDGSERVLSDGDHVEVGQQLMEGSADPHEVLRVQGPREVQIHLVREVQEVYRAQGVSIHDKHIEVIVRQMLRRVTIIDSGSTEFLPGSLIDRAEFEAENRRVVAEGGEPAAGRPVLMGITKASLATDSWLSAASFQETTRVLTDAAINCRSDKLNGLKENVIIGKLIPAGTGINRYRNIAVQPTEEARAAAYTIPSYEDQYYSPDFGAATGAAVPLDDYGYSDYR
Chain of RNAP-SigA holoenzyme (P9WGI1 whole entry, chain 4 of 4): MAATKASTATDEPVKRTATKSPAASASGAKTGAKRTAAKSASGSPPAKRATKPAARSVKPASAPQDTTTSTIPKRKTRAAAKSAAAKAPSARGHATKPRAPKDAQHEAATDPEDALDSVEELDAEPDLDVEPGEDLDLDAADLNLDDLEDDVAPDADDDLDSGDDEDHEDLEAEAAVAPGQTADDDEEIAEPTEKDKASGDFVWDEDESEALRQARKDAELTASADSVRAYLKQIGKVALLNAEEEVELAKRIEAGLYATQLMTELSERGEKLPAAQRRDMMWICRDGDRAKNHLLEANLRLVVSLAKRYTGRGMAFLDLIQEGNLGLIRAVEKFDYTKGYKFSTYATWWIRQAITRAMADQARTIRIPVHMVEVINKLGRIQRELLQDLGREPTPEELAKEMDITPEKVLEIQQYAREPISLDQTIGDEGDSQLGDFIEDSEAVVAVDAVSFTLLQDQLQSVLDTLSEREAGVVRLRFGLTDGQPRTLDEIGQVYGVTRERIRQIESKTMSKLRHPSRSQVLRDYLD

B1: rrnAP3/ADPr (non-template strand modified) (dsDNA)
DNA 1: CTATGGATGACCGAACCTGGTCTTGACTCCATTGCCGGATTTGTATTAGACTGGCAGGGTCGCCCCGAAGCGGGCGGAAACAAGCAAGCGTGTTGTTTGAGAACTC
DNA 2: GAGTTCTCAAACAACACGCTTGCTTGTTTCCGCCCGCTTCGGGGCGACCCTGCCAGTCTAATACAAATCCGGCAATGGAGTCAAGACCAGGTTCGGTCATCCATAG
modifications: ADP-ribosyl-thymidine on strand 1 (non-template; DarT; positions inferred near -10 in Fig 3A)
Turning to B1, the binding result is given as “binds”.
